{"source": "paper PMC7057995", "about": "“Structural basis of RNA polymerase I pre-initiation complex formation and promoter melting”", "binders": {"B1": {"name": "rDNA promoter -155 to +8 (PIC scaffold; ID 4693/4694) (dsDNA)", "DNA 1": "AGCTTAAATTGAAGTTTTTCTCGGCGAGAAATACGTAGTTAAGGCAGAGCGACAGAGAGGGCAAAAGAAAATAAAAGTAAGATTTTAGTTTGTAATGGGAGGGGGGGTTTAGTCATGGAGTACAAGTGTGAGGAAAAGTAGTTGGGAGGTACTTCATGCGAAA", "DNA 2": "TTTCGCATGAAGTACCTCCCAACTACTTTTCCTCACACTTGTACTCCATGACTAAACCCCCCCTCCCATTACAAACTAAAATCTTACTTTTATTTTCTTTTGCCCTCTCTGTCGCTCTGCCTTAACTACGTATTTCTCGCCGAGAAAAACTTCAATTTAAGCT"}, "B2": {"name": "rDNA promoter -83 to +26 (EMSA; ID 4691/4692) (dsDNA)", "DNA 1": "AAAAGTAAGATTTTAGTTTGTAATGGGAGGGGGAATTTAGTCATGGAGTACAAGTGTGAGGAAAAGTAGTTGGGAGGTACTTCATACCAAAGGGGTTCAACACAAGGGT", "DNA 2": "ACCCTTGTGTTGAACCCCTTTGGTATGAAGTACCTCCCAACTACTTTTCCTCACACTTGTACTCCATGACTAAATTCCCCCTCCCATTACAAACTAAAATCTTACTTTT"}}, "key": {"[1]": {"biological_target": "RNA polymerase I;Rrn3;Core factor (CF) wild type: Rrn6/Rrn7/Rrn11;UAF … (Saccharomyces cerevisiae;Saccharomyces …, UniProt P10964;P22138;P07703;P46669;P50106;P20434;P20435;P28000;P20436;P32529;P22139;P40 …, |||||)", "assay": "size exclusion chromatography; complete early PIC, stable throughout SEC; EMSA: 20 mM HEPES/KOH pH 7.8, 10% glycerol, 200 mM KCl, 1 mM MgCl2, 0.1 mg/ml BSA, 1 mM DTT, 30 min, temperature not stated; 6% native gel, 0.5x TBE"}, "CF with Rrn7 Δloop α7-α8": {"biological_target": "CF with Rrn7 Δloop α7-α8 (Saccharomyces cerevisiae, UniProt P32786;P40992;Q04712 1-894;1-286+298-514;1-507, internal_change)", "sequence (P32786 whole entry, stated change not applied, chain 1 of 3)": "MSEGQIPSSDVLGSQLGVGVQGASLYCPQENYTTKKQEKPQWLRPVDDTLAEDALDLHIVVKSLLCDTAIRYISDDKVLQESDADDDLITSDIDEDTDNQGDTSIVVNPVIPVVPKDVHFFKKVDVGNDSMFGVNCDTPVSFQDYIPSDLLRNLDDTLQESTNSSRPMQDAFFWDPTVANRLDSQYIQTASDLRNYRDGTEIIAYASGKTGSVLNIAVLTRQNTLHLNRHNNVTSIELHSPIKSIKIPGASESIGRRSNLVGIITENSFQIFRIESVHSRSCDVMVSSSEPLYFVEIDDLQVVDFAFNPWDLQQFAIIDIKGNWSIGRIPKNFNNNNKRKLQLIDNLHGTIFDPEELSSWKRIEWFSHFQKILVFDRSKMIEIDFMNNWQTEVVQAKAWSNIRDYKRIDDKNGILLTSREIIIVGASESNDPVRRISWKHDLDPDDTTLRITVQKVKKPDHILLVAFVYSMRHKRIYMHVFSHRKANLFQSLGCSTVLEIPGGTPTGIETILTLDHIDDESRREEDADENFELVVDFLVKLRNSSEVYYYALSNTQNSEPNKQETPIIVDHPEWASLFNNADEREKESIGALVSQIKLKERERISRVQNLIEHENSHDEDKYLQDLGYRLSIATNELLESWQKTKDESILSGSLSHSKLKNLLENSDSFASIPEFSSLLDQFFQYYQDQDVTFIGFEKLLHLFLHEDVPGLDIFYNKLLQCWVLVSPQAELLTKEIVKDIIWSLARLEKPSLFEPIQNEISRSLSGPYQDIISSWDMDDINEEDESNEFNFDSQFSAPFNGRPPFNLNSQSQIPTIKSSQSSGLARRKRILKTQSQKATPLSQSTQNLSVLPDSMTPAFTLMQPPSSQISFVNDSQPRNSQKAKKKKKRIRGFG", "sequence (P40992 other isoform, or with tags, fused parts or gaps | mutant, chain 2 of 3)": "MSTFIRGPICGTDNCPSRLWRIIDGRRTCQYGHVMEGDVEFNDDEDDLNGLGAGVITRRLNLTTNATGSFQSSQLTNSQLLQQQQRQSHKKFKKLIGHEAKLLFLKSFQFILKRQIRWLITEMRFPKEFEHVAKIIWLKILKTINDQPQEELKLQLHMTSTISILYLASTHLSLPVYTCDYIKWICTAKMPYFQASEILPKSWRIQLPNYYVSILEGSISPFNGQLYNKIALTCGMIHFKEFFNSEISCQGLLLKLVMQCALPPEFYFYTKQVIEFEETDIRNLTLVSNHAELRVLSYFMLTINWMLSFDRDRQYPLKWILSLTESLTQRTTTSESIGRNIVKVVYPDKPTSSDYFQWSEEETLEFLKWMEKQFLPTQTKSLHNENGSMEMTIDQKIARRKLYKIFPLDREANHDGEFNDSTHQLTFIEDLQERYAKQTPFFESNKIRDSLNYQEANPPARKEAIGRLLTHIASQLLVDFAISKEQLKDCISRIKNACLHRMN", "sequence (Q04712 whole entry, stated change not applied, chain 3 of 3)": "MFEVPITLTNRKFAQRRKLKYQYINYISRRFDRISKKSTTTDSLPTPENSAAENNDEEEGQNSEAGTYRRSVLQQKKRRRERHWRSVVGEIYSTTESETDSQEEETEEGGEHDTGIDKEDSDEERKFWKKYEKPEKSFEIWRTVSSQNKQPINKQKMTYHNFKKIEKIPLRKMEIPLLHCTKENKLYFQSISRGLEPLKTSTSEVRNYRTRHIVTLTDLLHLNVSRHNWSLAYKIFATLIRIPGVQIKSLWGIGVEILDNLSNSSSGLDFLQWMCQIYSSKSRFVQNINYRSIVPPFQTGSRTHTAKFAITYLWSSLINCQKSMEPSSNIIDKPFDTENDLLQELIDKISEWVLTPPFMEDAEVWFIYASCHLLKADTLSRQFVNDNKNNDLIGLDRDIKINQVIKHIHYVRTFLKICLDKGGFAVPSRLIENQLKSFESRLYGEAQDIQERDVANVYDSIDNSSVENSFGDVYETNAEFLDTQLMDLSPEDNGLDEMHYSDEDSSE", "assay": "EMSA; 0.2 pmol DNA; 0.25-1 pmol CF; binding not impaired; EMSA: 20 mM HEPES/KOH pH 7.8, 10% glycerol, 200 mM KCl, 1 mM MgCl2, 0.1 mg/ml BSA, 1 mM DTT, 30 min, temperature not stated; 6% native gel, 0.5x TBE", "conditions": "protein: recombinant; tags: His (Ni-NTA purified); copies: 1;1;1; label: NTS -3 Atto647N; TS -5 Cy3; blunt"}, "CF with Rrn7 Δα4a": {"biological_target": "CF with Rrn7 Δα4a (Saccharomyces cerevisiae, UniProt P32786;P40992;Q04712 1-894;1-208+221-514;1-507, internal_change)", "sequence (P32786 whole entry, stated change not applied, chain 1 of 3)": "as the sequence (P32786 whole entry, stated change not applied, chain 1 of 3) above", "sequence (P40992 other isoform, or with tags, fused parts or gaps | mutant, chain 2 of 3)": "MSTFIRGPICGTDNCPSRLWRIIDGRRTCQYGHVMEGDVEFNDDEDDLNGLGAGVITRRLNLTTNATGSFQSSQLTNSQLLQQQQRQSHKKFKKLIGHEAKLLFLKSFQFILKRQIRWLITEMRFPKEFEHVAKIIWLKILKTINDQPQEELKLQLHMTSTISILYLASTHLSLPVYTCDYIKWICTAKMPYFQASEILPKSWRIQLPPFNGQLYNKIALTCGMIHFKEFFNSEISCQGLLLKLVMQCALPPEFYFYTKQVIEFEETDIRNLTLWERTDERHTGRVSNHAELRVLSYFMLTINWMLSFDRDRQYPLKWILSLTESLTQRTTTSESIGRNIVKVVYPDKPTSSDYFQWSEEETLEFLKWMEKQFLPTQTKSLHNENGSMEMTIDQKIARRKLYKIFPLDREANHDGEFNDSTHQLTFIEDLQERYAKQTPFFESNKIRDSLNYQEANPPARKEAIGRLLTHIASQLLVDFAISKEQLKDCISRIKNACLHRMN", "sequence (Q04712 whole entry, stated change not applied, chain 3 of 3)": "as the sequence (Q04712 whole entry, stated change not applied, chain 3 of 3) above", "assay": "EMSA; 0.2 pmol DNA; 0.25-1 pmol CF; binding not impaired; EMSA: 20 mM HEPES/KOH pH 7.8, 10% glycerol, 200 mM KCl, 1 mM MgCl2, 0.1 mg/ml BSA, 1 mM DTT, 30 min, temperature not stated; 6% native gel, 0.5x TBE", "conditions": "protein: recombinant; tags: His (Ni-NTA purified); copies: 1;1;1; label: NTS -3 Atto647N; TS -5 Cy3; blunt"}}, "data": [{"binder": "B1", "values": [{"measurement": "binding result", "setting": "[1]", "result": "binds"}]}, {"binder": "B2", "values": [{"measurement": "binding result", "setting": "CF with Rrn7 Δloop α7-α8", "result": "binds"}, {"measurement": "binding result", "setting": "CF with Rrn7 Δα4a", "result": "binds"}]}]}
